This is an account of results in paper PMC12376597, “High‐Throughput MicroED for Probing Ion Channel Dynamics” (Advanced Science, 2025).

For data set [1], the target named is NaK2CNG, mutant of NaK with the selectivity filter substituted to TVGDTPP, lacking the first 19 residues (UniProt Q81HW2). Put plainly: crystal structure; MicroED (electron diffraction) of single microcrystals grown in Tris pH 8.0 and 60-80% MPD; protein in 0.2% DM with 150 mM NaCl (NaK) or 150 mM KCl (NaK2CNG); space group I4, two monomers in the asymmetric unit, tetramers generated by crystal symmetry.

Data set [2] deals with the molecule itself. Described as above.

A word on the stoichiometry N: it is a count of units in the complex or per binding partner. Molecule “NaK2CNG, mutant of NaK with the selectivity filter substituted to TVGDTPP, lacking the first 19 residues (from UniProt Q81HW2 20-114) (natural protein)” came in with a stoichiometry N in data set [1] of 4.

B1: NaK, non-selective ion channel, lacking the first 19 residues (natural protein, UniProt Q81HW2 20-114, looked up)
chain: KDKEFQVLFVLTILTLISGTIFYSTVEGLRPIDALYFSVVTLTTVGDGNFSPQTDFGKIFTILYIFIGIGLVFGFIHKLAVNVQLPSILSNRKKE
notes: NaK non-selective cation channel, construct lacking the first 19 residues; model for molecular replacement was PDB 3E89; Tetrameric channel; in space group I4 the tetramer is generated from one monomer by crystal symmetry, and the two monomers of the asymmetric unit give two tetramers; also called NaK channel
As for B1, the “stoichiometry N” value in data set [2] is 4.
